In the supplement of paper PMC10567573:

B1: INTS3 (parent)
chain: KKREFRFHPIKETVVEEPVDITPY
B2: FANCE (parent)
chain: AQVLMLGQILELPWKEETFLVLQS

Variants of: B1
Test: protein stability index of a GFP-peptide fusion (GPS, HEK-293T) (PSI 1-6); higher = more stable
Conditions: c terminus: a fixed tail appended
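Also: lentivirally expressed fusions sorted by FACS into six bins by GFP to DsRed ratio, PSI derived from sequencing read proportions per bin multiplied by bin number.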

Protein stability index of substitutions, site by site:
V19: P 2.06 | Q 1.8 | S 2.25 | T 1.88 | A 2.67 | L 1.7 | W 1.38 | E 2.28 | R 2.37 | M 2.23 | D 2.13 | C 2.01 | G 1.98 | H 1.76 | N 2.02 | Y 2.28 | K 1.88 | F 1.77 | I 1.51
P23: S 1.61 | Y 2.87 | E 3.24 | R 1.55 | M 2.4 | T 1.46 | N 1.84 | Q 1.88 | I 1.5 | D 2.04 | F 1.67 | L 1.84 | W 2.28 | K 1.99 | G 3.45 | A 1.66 | H 1.74 | V 1.44 | C 2.08
E17: K 1.43 | I 2.6 | G 2.26 | T 2.13 | W 2.46 | H 1.62 | V 2.02 | M 1.95 | D 1.79 | Y 2.06 | P 1.59 | F 1.89 | Q 2.42 | R 2.32 | N 2.19 | A 1.79 | L 2.15 | S 2.24 | C 1.97
V15: I 1.67 | C 1.68 | L 1.73 | W 1.53 | Y 1.84 | Q 2 | D 2.35 | H 1.82 | E 2.41 | A 2.01 | R 1.98 | P 2.13 | K 1.39 | G 1.49 | T 1.75 | F 1.91 | S 1.58 | N 1.75 | M 2.13
E12: L 3.92 | I 2.61 | F 2.96 | Y 2 | P 1.92 | K 2.19 | D 1.87 | G 2.93 | T 1.39 | Q 2.48 | M 2.43 | R 1.94 | W 2.98 | H 2.17 | N 1.86 | S 1.56 | C 2.05 | A 1.97
T22: Y 2.26 | L 2.33 | M 1.89 | S 2.33 | D 2.12 | I 1.96 | P 1.86 | W 1.3 | F 2.57 | H 2.23 | A 1.45 | G 2.03 | R 1.99 | C 1.82 | Q 1.93 | V 1.58 | E 1.97 | N 1.72 | K 1.88
Y24: M 1.76 | V 2.26 | H 1.99 | I 2.33 | Q 2.04 | S 1.84 | E 2.38 | W 1.88 | C 2.16 | P 2.17 | N 2.03 | R 1.47 | G 2.44 | K 1.71 | D 2.44 | L 2.17 | F 2.18 | A 2.59 | T 2.24
I21: S 1.21 | T 1.95 | H 1.59 | K 2.02 | R 1.59 | E 2.37 | Q 2.43 | C 2.01 | D 2.37 | N 2 | V 2.63 | A 1.76 | P 2.5 | F 1.92 | M 1.7 | W 2.1 | G 1.49 | L 2.01 | Y 1.56
V14: D 2.58 | T 1.42 | H 1.89 | A 1.52 | M 2.19 | E 1.95 | Y 1.89 | Q 3.65 | P 1.64 | R 1.35 | C 1.98 | S 3.05 | L 1.82 | N 1.99 | I 1.91 | K 1.53 | F 1.71 | W 1.91 | G 1.63
K11: Q 1.82 | W 1.61 | P 2.33 | L 2.72 | S 2.31 | V 2.36 | R 1.88 | M 2.64 | Y 2.7 | H 2.04 | N 1.71 | G 2.04 | I 1.85 | T 1.97
T13: R 1.79 | K 1.96 | H 2.06 | L 1.43 | F 1.54 | C 2.38 | Y 3.62 | D 2.19 | G 2.33 | S 1.55 | I 1.58 | A 1.92 | W 2.56 | P 1.75 | V 2.12 | N 1.63 | Q 1.96 | M 1.57 | E 2.39
E16: D 2.18 | M 1.41 | R 2.73 | A 1.73 | F 2.4 | L 1.88 | Q 1.86 | I 2.29 | K 2.5 | G 2.47 | N 2.39 | H 1.83 | V 1.95 | T 2.16 | S 1.82 | P 2.54 | C 2.46 | W 2.1 | Y 2.36
D20: K 1.05 | L 1.56 | Y 2.16 | C 1.61 | I 1.7 | R 2.22 | G 2.15 | F 2.48 | H 2.25 | P 1.79 | V 1.65 | W 1.6 | E 2.35 | A 1.26 | T 1.67 | M 1.96 | Q 2.02 | S 1.04 | N 2.2
P18: W 2.29 | R 2.78 | E 2.05 | G 1.79 | T 1.36 | Y 3.25 | S 1.79 | F 2.72 | H 1.74 | V 1.83 | M 1.99 | K 2.62 | A 1.87 | I 1.64 | L 1.85 | N 2.26 | D 2.12 | Q 2.06 | C 1.86

Variants of: B2
Test: as above
Conditions: c terminus: a fixed tail appended

Protein stability index, by site and new letter:
V3: S 1.95 | I 2.75 | H 2.45 | M 2.09 | R 2.92 | K 1.32 | A 3.44 | P 1.56 | G 1.85 | D 1.81 | E 1.82 | Y 2.82 | F 3.46 | T 2.01 | Q 1.72 | N 1.97 | L 3.37
Q2: N 3.14 | Y 1.82 | F 1.72 | G 2.21 | E 2.48 | D 2 | I 3.13 | T 3.45 | H 2.69 | A 2.05 | K 2.02 | S 2.87 | P 1.55
L4: H 1.66 | C 3.01 | P 2.18 | Q 2.4 | T 2.7 | N 2.04 | W 2.28 | S 2 | E 3.28 | D 3.76 | M 3.29 | R 2.68 | Y 2.82 | G 2.25 | K 2.13 | A 2.02
A1: N 2.31 | L 3.15 | I 3.1 | R 1.83 | Q 2.4 | G 2.51 | C 2.51 | M 3.16 | W 2.62 | T 4.61 | K 1.56 | H 1.25 | D 1.77 | V 3.34 | E 2.43
M5: N 2.12 | S 1.68 | T 1.72 | E 1.79 | D 1.95 | G 1.05 | L 2.3 | A 2.24 | K 1.8 | C 1.57 | P 1.79 | R 1.78 | Q 1.76
